Measured values reported in article PMC4990970.

Key:
[1] = biological target: AtBAG5/Hsc70 complex (AtBAG5-long/Hsp70) (Arabidopsis thaliana | human) (UniProt O65373); test: ITC; iTC200, room temperature, 20 mM Tris-HCl pH 7.5, 500 mM NaCl, 10 mM CaCl2 (holo-CaM, presence of calcium); 0.05-0.1 mM in the cell, 0.5-1.0 mM in the syringe
[2] = biological target: AtBAG5/Hsc70 complex (AtBAG5-long/Hsp70) (Arabidopsis thaliana | human) (UniProt O65373); test: ITC; iTC200, room temperature, 20 mM Tris-HCl pH 7.5, 500 mM NaCl, 5 mM EGTA (apo-CaM, absence of calcium); 0.05-0.1 mM in the cell, 0.5-1.0 mM in the syringe

Kd [1]: 21.2 µM | Kd [2]: 0.39 µM
Substance: Calmodulin (CaM) (from UniProt P0DP23 1-149) (natural protein)
